Results taken from patent CN110498854A (UNIV ARMY MEDICAL, dated 2019).

Key:
金黄色葡萄球菌肠毒素B (SEB) [1] = target: T1, 金黄色葡萄球菌肠毒素B (SEB) (Staphylococcus aureus (ATCC BAA-1556), UniProt P01552 28-266)
金黄色葡萄球菌肠毒素B (SEB) [2] = target: T1, 金黄色葡萄球菌肠毒素B (SEB); experiment: ELISA, antigen coated

T1 sequence (P01552 28-266, tags left off): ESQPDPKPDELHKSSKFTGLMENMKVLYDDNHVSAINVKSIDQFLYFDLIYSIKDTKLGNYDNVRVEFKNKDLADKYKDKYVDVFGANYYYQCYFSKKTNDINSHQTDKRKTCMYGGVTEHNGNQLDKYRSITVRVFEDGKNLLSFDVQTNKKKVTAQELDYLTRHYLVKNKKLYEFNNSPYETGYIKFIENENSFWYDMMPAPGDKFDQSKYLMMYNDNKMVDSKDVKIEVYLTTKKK

B1: 全人源SEB单克隆抗体M0313 (antibody, V domains shown)
VH: EVQLVQSGGGLVQPGGSLRLSCAASGFTLSNYGMSWVRQSPGKGLEWVSGISGGSGSTCYADFVKGRFTISRDKSKNTLSLEMNSLRAEDRAVYYCAKDREYYNSGYYYFPYQYAMDVWGQGTTVTVSS
VL: QSVLTQPPSASGTPGQRVTISCSGGRPNIGGNSVYWYQQFPGTSPKLLIYTNDQRPSGVPDRFSGSKSGTSASLAISGLRSEDEADYYCAAWDDSLSAYVFGAGTKVTVL
Kd (金黄色葡萄球菌肠毒素B (SEB) [1]): 3.22 nM
koff (金黄色葡萄球菌肠毒素B (SEB) [1]): 0.00292 s⁻¹
kon (金黄色葡萄球菌肠毒素B (SEB) [1]): 908000 M⁻¹ s⁻¹
EC50 (金黄色葡萄球菌肠毒素B (SEB) [2]): 7.3 ng/mL
